Source: the supplement of paper PMC9170038

System: MS2 coat protein
Test: apparent KD of MS2 coat protein; designed switch direction (-1 OFF switch, 1 ON switch): 1; higher = weaker reporter binding
Method in brief: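 Apparent KD, taken as the median over clusters for each design, was obtained by curve-fitting normalised cluster fluorescence. Designed RNA switches had been transcribed on Illumina chips by stalled E. coli RNA polymerase and titrated with SNAP-549-labelled MS2 coat protein, doubling from 0.7 or 1.5 nM to 3 µM.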

[1] = Eterna round: R95, input ligand: FMN 200 uM
[2] = Eterna round: R95, input ligand: microRNA oligo, concentration not stated
[3] = Eterna round: R95, input ligand: none
[4] = input ligand: microRNA oligo, concentration not stated

| Sequence | apparent KD of MS2 coat protein [1] | apparent KD of MS2 coat protein [2] | apparent KD of MS2 coat protein [3] | apparent KD of MS2 coat protein [4] | apparent KD of MS2 coat protein (input ligand: FMN 200 uM) | apparent KD of MS2 coat protein (input ligand: none) |
| --- | --- | --- | --- | --- | --- | --- |
| UAGAGAGGAAGCGAGGAUAUCGUGGGAGGAACAUGAGGAUCACCCAUGUGUGAUGUUGAGAGGAACGAGAAGGCGCAGGAAAGUA [JR_SS2_Sub078] (puzzle: Same State 2) | 83.3 nM | 83.1 nM | 143 nM |  |  |  |
| AGCGAGAUAGGCAAGGAUAUGCUGGGUUUCACAUGAGGAUCACCCAUGUCAUUGGUUAUGUCCGAGCAGAAGGUGCAUUCUCUUU [ak bound state multiloop solution 2] (puzzle: Same State 2) |  | 250 nM |  |  |  |  |
| AGAAAACAUGAGGAUCACCCAUGUAGAAAUAUGGGAGGAUAUACAAAGACGAAAGUCGAGGUAGAAGGCCUAAAGA [Mat - Same State 1 - Meechl mod - D122] (Eterna round: R96, puzzle: Same State 1) |  |  |  | 77.9 nM |  |  |
| UAAAUAAUGUAAGGAUAUACAUGAGGAAUUCUCGUAGAAGGUACAUGACAUGAGGAUCACCCAUGUAUCGCUCAGUAGAGCGUA [Mat - Same State NG 1 - JL mod - D27] (Eterna round: R96, puzzle: Same State NG 1) |  |  |  | 48.3 nM |  |  |
| UCAUGGUUUUUGCUCGUUUUAUGUGUUGAACAUGAGGAUCACCCAUGUAUUGUACGAUCCAGUUAGAUGGUGGUUUG [JR_SHM208A_Sub043] (puzzle: Sensor for hsa-mir-208a) | 235 nM | 85.8 nM | 469 nM |  |  |  |
| AACAAUCUAUUUGAGGAUAUCAUGAAAUAAACAUGAGGAUCACCCAUGUGCAGGAAAACUGCAUAUGAGAAGGCAGAUAGAUUGA [salish99_ss2_r3_025] (puzzle: Same State 2) | 25.4 nM | 30.2 nM | 24.1 nM |  |  |  |
| AUUAAACAUGAGGAUCACCCAUGUCAACAAAGUCGAGGAUAUGGGCAAAUAAAAUAAGUACCAGAAGGCGAAUAAU [salish99_ss1_r3_066] (puzzle: Same State 1) |  | 149 nM |  |  |  |  |
| AUUAUUAAUGCAGGAUAUGAUUAACAUGAGGAUCACCCAUGUGGUGUUGUGAGUAAGGAGAGUGAUCAGAAGGGCAUUUUUAUU [JMF's solution 13] (Eterna round: R96, puzzle: Same State NG 2) |  |  |  | 353 nM | 1020 nM | 808 nM |
| AUGGUGCAGGUACAGGAUAUGUUGCUCGUAACAUGAGGAUCACCCAUGUACCUAUGAGAUUAAAUGCAGAAGGGUGCACACCACG [Quorra] (Eterna round: R96, puzzle: Same State 2) |  |  |  | 406 nM | 62.8 nM | 1260 nM |
| ACAUGAGAAGGAGGAUAUUUUGUACCUACAUGUGACAUGAGGAUCACCCAUGUGGUAAGUAUGAGAAAGAAGGCCUAGAUAUGU [Equivalence 15 - Jieux - Same State NG 2] (Eterna round: R96, puzzle: Same State NG 2) |  |  |  | 21 nM | 21.3 nM | 36.3 nM |
| CUGAGAUGUCAAGGAUAUCACGUCGAUUAGACGUGAGAAGGUGAUCUGCACAUGAGGAUCACCCAUGUGUUACAUGGAACUCAG [Brourd's SSNG1/1-A2 mod 11] (Eterna round: R96, puzzle: Same State NG 1) |  |  |  | 386 nM | 197 nM | 431 nM |
| CGCUGUCACGCAGGAUAUGCAUUGGAUUACAAUGCAGAAGGGCGAUCACAUGAGGAUCACCCAUGUGUAGACAGUGAAGAAGAG [MOD2 JMF Solution 3] (Eterna round: R96, puzzle: Same State NG 1) |  |  |  | 479 nM | 46.1 nM | 480 nM |
